Test results: patent US20110294738A1, “PTHR1 RECEPTOR COMPOUNDS” (priority 2008, published 2011)
One block for each molecule: values may come before it. * marks the point of attachment. Palmitoyl = CCCCCCCCCCCCCCCC(=O)*

Columns and labels:
PTHR1 = biological target: T1, PTHR1 (Rattus norvegicus, UniProt P25961); test: cAMP screening assay using DiscoveRX XS+ kit (PTH1-34 dose-response in UMR-106 cells); settings: compound 10 μM; for Fold Shift of EC50: PTH1-34 EC50 compound/EC50 vehicle; for Inhibition of Maximal Response: PTH1-34 stimulated maximal response, 1−(Emax compound/Emax vehicle)
T1 sequence (P25961 27-591): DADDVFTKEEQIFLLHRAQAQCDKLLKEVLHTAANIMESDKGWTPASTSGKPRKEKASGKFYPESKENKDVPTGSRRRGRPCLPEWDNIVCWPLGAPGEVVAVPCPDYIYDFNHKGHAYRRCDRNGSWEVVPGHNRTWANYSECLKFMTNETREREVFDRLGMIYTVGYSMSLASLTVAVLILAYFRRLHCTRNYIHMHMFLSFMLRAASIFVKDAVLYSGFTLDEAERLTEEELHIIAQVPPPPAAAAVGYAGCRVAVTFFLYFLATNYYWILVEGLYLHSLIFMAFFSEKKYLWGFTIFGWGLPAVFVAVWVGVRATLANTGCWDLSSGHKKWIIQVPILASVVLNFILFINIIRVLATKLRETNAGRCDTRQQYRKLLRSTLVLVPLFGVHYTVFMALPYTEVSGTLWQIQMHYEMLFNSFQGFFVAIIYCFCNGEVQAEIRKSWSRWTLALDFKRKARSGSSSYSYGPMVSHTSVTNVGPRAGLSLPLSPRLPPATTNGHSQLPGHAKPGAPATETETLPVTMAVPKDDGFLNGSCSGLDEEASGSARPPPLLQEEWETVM
Method: cAMP Screening Assay Using DiscoveRX XS+ Kit
UMR-106 cells were seeded in 96-well white plates at 10K cells/well in growth media. Twenty four hours after seeding, cell media was removed by gentle dumping and replaced with 30 μL of compounds diluted to 10 μM final concentration in assay buffer (Hank's balanced Salt Solution, 20 mM HEPES, pH 7.4, 0.1 μM IBMX). After 30 minute incubation at room temperature, 10 μL human PTH1-34 serial diluted in assay buffer was added. Cells were incubated at 37° C. for 15 minutes before 10 μL of water soluble analog of forskolin, NKH477 was added to final concentration of 10 μM followed by 60 minute incubation at room temperature. DiscoveRX cAMP XS+ kit reagents were then added following manufacture protocol. Briefly, 10 μL of antibody was added to each well followed by 40 μL of ED/Lysis buffer mix (1/5/19 for Galacon-star/Emerald/Lysis buffer and then 1:1 with ED). After 1 hour incubation, 40 μL of EA reagent was added followed by at least 1 hour incubation before the plates were read on TopCount reader. Data was analyzed using GraphPad Prism. PTH1-34 dose-response curves were fitted using non-linear curve fit (Y=Bottom+(Top−Bottom)/(1+10̂((Log EC50−X)*HillSlope))). PTH1-34 EC50 values calculated in the presence of compounds were compared to that in the presence of vehicle control. The ratio of the EC50 values were calculated and presented as fold shift (EC50 compound/EC50 vehicle). The effect of compounds on PTH1-34 stimulated maximal response was also assessed and was presented percent inhibition (1−(Emax compound/Emax vehicle)).

Sequence of PTHR1 receptor (P25961 whole entry): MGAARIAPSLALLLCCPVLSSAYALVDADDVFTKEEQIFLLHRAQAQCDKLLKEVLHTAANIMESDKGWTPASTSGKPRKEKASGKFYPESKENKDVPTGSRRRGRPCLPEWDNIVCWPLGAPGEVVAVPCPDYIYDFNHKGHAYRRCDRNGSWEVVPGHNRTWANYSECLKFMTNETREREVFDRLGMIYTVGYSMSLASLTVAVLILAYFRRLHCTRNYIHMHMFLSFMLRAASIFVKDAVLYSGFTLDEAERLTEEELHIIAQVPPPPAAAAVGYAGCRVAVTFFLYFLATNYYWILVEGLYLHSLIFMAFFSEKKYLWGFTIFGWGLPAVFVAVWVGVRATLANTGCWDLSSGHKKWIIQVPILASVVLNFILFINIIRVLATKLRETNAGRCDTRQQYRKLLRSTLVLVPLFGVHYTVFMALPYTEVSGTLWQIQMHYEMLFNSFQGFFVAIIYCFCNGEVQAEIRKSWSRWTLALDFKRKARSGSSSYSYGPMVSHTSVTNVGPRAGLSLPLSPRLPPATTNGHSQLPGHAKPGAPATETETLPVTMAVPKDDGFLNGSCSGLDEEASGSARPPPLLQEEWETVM

Molecule: TNAGRSDTRQQYRKLLFS [Compound 85]
- Fold Shift of EC50 (PTHR1): 6.9
- Inhibition of Maximal Response (PTHR1): 19.50%

Molecule: LYLHSLIFMSFFSEKK [Compound 40]
- Fold Shift of EC50 (PTHR1): 1.5
- Inhibition of Maximal Response (PTHR1): 28.30%

Molecule: TNAGRSDTRQQYAKLL [Compound 91]
- Fold Shift of EC50 (PTHR1): 2
- Inhibition of Maximal Response (PTHR1): 9.80%

Molecule: LYLHSLIFMAFFSEKKYLWGFT [Compound 34]
- Fold Shift of EC50 (PTHR1): 1.2
- Inhibition of Maximal Response (PTHR1): 4.20%

Molecule: GSYFRRLHSTRNYIH [Compound 11]
- Fold Shift of EC50 (PTHR1): 1.1
- Inhibition of Maximal Response (PTHR1): 19.80%

B1: Compound 64 (peptide)
peptide: Palmitoyl-TNAGRSDTRQQYRKLLKS-NH2
SMILES: CCCCCCCCCCCCCCCC(=O)N[C@H](C(=O)N[C@@H](CC(N)=O)C(=O)N[C@@H](C)C(=O)NCC(=O)N[C@@H](CCCNC(=N)N)C(=O)N[C@@H](CO)C(=O)N[C@@H](CC(=O)O)C(=O)N[C@H](C(=O)N[C@@H](CCCNC(=N)N)C(=O)N[C@@H](CCC(N)=O)C(=O)N[C@@H](CCC(N)=O)C(=O)N[C@@H](Cc1ccc(O)cc1)C(=O)N[C@@H](CCCNC(=N)N)C(=O)N[C@@H](CCCCN)C(=O)N[C@@H](CC(C)C)C(=O)N[C@@H](CC(C)C)C(=O)N[C@@H](CCCCN)C(=O)N[C@@H](CO)C(N)=O)[C@@H](C)O)[C@@H](C)O
- Fold Shift of EC50 (PTHR1 receptor): 7 fold
- Inhibition of Maximal Response (PTHR1 receptor): -0.1%

B2: Compound 3 (peptide)
peptide: Palmitoyl-LAYFRRLHSTRNY-NH2
SMILES: CCCCCCCCCCCCCCCC(=O)N[C@@H](CC(C)C)C(=O)N[C@@H](C)C(=O)N[C@@H](Cc1ccc(O)cc1)C(=O)N[C@@H](Cc1ccccc1)C(=O)N[C@@H](CCCNC(=N)N)C(=O)N[C@@H](CCCNC(=N)N)C(=O)N[C@@H](CC(C)C)C(=O)N[C@@H](Cc1c[nH]cn1)C(=O)N[C@@H](CO)C(=O)N[C@H](C(=O)N[C@@H](CCCNC(=N)N)C(=O)N[C@@H](CC(N)=O)C(=O)N[C@@H](Cc1ccc(O)cc1)C(N)=O)[C@@H](C)O
- Fold Shift of EC50 (PTHR1 receptor): 0.7 fold
- Inhibition of Maximal Response (PTHR1 receptor): -51.4%

B3: Compound 69 (peptide)
peptide: Palmitoyl-TNAGRSDTRQQYRK-NH2
SMILES: CCCCCCCCCCCCCCCC(=O)N[C@H](C(=O)N[C@@H](CC(N)=O)C(=O)N[C@@H](C)C(=O)NCC(=O)N[C@@H](CCCNC(=N)N)C(=O)N[C@@H](CO)C(=O)N[C@@H](CC(=O)O)C(=O)N[C@H](C(=O)N[C@@H](CCCNC(=N)N)C(=O)N[C@@H](CCC(N)=O)C(=O)N[C@@H](CCC(N)=O)C(=O)N[C@@H](Cc1ccc(O)cc1)C(=O)N[C@@H](CCCNC(=N)N)C(=O)N[C@@H](CCCCN)C(N)=O)[C@@H](C)O)[C@@H](C)O
- Fold Shift of EC50 (PTHR1 receptor): 5.2 fold
- Inhibition of Maximal Response (PTHR1 receptor): 2.5%

B5: Compound 62 (peptide)
peptide: Palmitoyl-RETNAGRSDTRQQY-NH2
SMILES: CCCCCCCCCCCCCCCC(=O)N[C@@H](CCCNC(=N)N)C(=O)N[C@@H](CCC(=O)O)C(=O)N[C@H](C(=O)N[C@@H](CC(N)=O)C(=O)N[C@@H](C)C(=O)NCC(=O)N[C@@H](CCCNC(=N)N)C(=O)N[C@@H](CO)C(=O)N[C@@H](CC(=O)O)C(=O)N[C@H](C(=O)N[C@@H](CCCNC(=N)N)C(=O)N[C@@H](CCC(N)=O)C(=O)N[C@@H](CCC(N)=O)C(=O)N[C@@H](Cc1ccc(O)cc1)C(N)=O)[C@@H](C)O)[C@@H](C)O
- Fold Shift of EC50 (PTHR1 receptor): 1.1 fold
- Inhibition of Maximal Response (PTHR1 receptor): -5.4%

B7: Compound 61 (peptide)
peptide: Palmitoyl-RETNAGRSDTRQQYRF-NH2
SMILES: CCCCCCCCCCCCCCCC(=O)N[C@@H](CCCNC(=N)N)C(=O)N[C@@H](CCC(=O)O)C(=O)N[C@H](C(=O)N[C@@H](CC(N)=O)C(=O)N[C@@H](C)C(=O)NCC(=O)N[C@@H](CCCNC(=N)N)C(=O)N[C@@H](CO)C(=O)N[C@@H](CC(=O)O)C(=O)N[C@H](C(=O)N[C@@H](CCCNC(=N)N)C(=O)N[C@@H](CCC(N)=O)C(=O)N[C@@H](CCC(N)=O)C(=O)N[C@@H](Cc1ccc(O)cc1)C(=O)N[C@@H](CCCNC(=N)N)C(=O)N[C@@H](Cc1ccccc1)C(N)=O)[C@@H](C)O)[C@@H](C)O
- Fold Shift of EC50 (PTHR1 receptor): 0.7 fold
- Inhibition of Maximal Response (PTHR1 receptor): -47.6%

B8: Compound 70 (peptide)
peptide: Palmitoyl-TNAGRSDTRQQYRF-NH2
SMILES: CCCCCCCCCCCCCCCC(=O)N[C@H](C(=O)N[C@@H](CC(N)=O)C(=O)N[C@@H](C)C(=O)NCC(=O)N[C@@H](CCCNC(=N)N)C(=O)N[C@@H](CO)C(=O)N[C@@H](CC(=O)O)C(=O)N[C@H](C(=O)N[C@@H](CCCNC(=N)N)C(=O)N[C@@H](CCC(N)=O)C(=O)N[C@@H](CCC(N)=O)C(=O)N[C@@H](Cc1ccc(O)cc1)C(=O)N[C@@H](CCCNC(=N)N)C(=O)N[C@@H](Cc1ccccc1)C(N)=O)[C@@H](C)O)[C@@H](C)O
- Fold Shift of EC50 (PTHR1 receptor): 2 fold
- Inhibition of Maximal Response (PTHR1 receptor): 15.1%

B9: Compound 68 (peptide)
peptide: Palmitoyl-TNAGRSDTRQQYRKLL-NH2
SMILES: CCCCCCCCCCCCCCCC(=O)N[C@H](C(=O)N[C@@H](CC(N)=O)C(=O)N[C@@H](C)C(=O)NCC(=O)N[C@@H](CCCNC(=N)N)C(=O)N[C@@H](CO)C(=O)N[C@@H](CC(=O)O)C(=O)N[C@H](C(=O)N[C@@H](CCCNC(=N)N)C(=O)N[C@@H](CCC(N)=O)C(=O)N[C@@H](CCC(N)=O)C(=O)N[C@@H](Cc1ccc(O)cc1)C(=O)N[C@@H](CCCNC(=N)N)C(=O)N[C@@H](CCCCN)C(=O)N[C@@H](CC(C)C)C(=O)N[C@@H](CC(C)C)C(N)=O)[C@@H](C)O)[C@@H](C)O
- Fold Shift of EC50 (PTHR1 receptor): 12.4 fold
- Inhibition of Maximal Response (PTHR1 receptor): -0.0684

B11: Compound 67 (peptide)
peptide: Palmitoyl-DTRQQYRKLLKS-NH2
SMILES: CCCCCCCCCCCCCCCC(=O)N[C@@H](CC(=O)O)C(=O)N[C@H](C(=O)N[C@@H](CCCNC(=N)N)C(=O)N[C@@H](CCC(N)=O)C(=O)N[C@@H](CCC(N)=O)C(=O)N[C@@H](Cc1ccc(O)cc1)C(=O)N[C@@H](CCCNC(=N)N)C(=O)N[C@@H](CCCCN)C(=O)N[C@@H](CC(C)C)C(=O)N[C@@H](CC(C)C)C(=O)N[C@@H](CCCCN)C(=O)N[C@@H](CO)C(N)=O)[C@@H](C)O
- Fold Shift of EC50 (PTHR1 receptor): 6 fold
- Inhibition of Maximal Response (PTHR1 receptor): 6.9%

More lines, main results first:

- Inhibition of Maximal Response (PTHR1): −20.40%
Molecule: TNAGRSDTRQQYRKAL [Compound 89]
- Fold Shift of EC50 (PTHR1): 2.3

- Inhibition of Maximal Response (PTHR1): −24.90%
Molecule: RRLHSTRNYIH [Compound 2]
- Fold Shift of EC50 (PTHR1): 1.9

- Inhibition of Maximal Response (PTHR1): −67.00%
Molecule: TNAGRSDTRQAYRKLL [Compound 93]
- Fold Shift of EC50 (PTHR1): 13.4

- Inhibition of Maximal Response (PTHR1): 0.80%
Molecule: TNAARSDTRQQYRKLL [Compound 80]
- Fold Shift of EC50 (PTHR1): 2.3

- Fold Shift of EC50 (PTHR1 receptor): 0.8 fold
- Inhibition of Maximal Response (PTHR1 receptor): 13.5%
B4: Compound 71 (peptide)
peptide: Palmitoyl-SGRVLATKLR-NH2
SMILES: CCCCCCCCCCCCCCCC(=O)N[C@@H](CO)C(=O)NCC(=O)N[C@@H](CCCNC(=N)N)C(=O)N[C@H](C(=O)N[C@@H](CC(C)C)C(=O)N[C@@H](C)C(=O)N[C@H](C(=O)N[C@@H](CCCCN)C(=O)N[C@@H](CC(C)C)C(=O)N[C@@H](CCCNC(=N)N)C(N)=O)[C@@H](C)O)C(C)C

- Fold Shift of EC50 (PTHR1 receptor): 16.4 fold
- Inhibition of Maximal Response (PTHR1 receptor): -39%
B6: Compound 66 (peptide)
peptide: Palmitoyl-RSDTRQQYRKLLKS-NH2
SMILES: CCCCCCCCCCCCCCCC(=O)N[C@@H](CCCNC(=N)N)C(=O)N[C@@H](CO)C(=O)N[C@@H](CC(=O)O)C(=O)N[C@H](C(=O)N[C@@H](CCCNC(=N)N)C(=O)N[C@@H](CCC(N)=O)C(=O)N[C@@H](CCC(N)=O)C(=O)N[C@@H](Cc1ccc(O)cc1)C(=O)N[C@@H](CCCNC(=N)N)C(=O)N[C@@H](CCCCN)C(=O)N[C@@H](CC(C)C)C(=O)N[C@@H](CC(C)C)C(=O)N[C@@H](CCCCN)C(=O)N[C@@H](CO)C(N)=O)[C@@H](C)O

- Fold Shift of EC50 (PTHR1 receptor): 14.7 fold
- Inhibition of Maximal Response (PTHR1 receptor): -0.359
B10: Compound 65 (peptide)
peptide: Palmitoyl-AGRSDTRQQYRKLLKS-NH2
SMILES: CCCCCCCCCCCCCCCC(=O)N[C@@H](C)C(=O)NCC(=O)N[C@@H](CCCNC(=N)N)C(=O)N[C@@H](CO)C(=O)N[C@@H](CC(=O)O)C(=O)N[C@H](C(=O)N[C@@H](CCCNC(=N)N)C(=O)N[C@@H](CCC(N)=O)C(=O)N[C@@H](CCC(N)=O)C(=O)N[C@@H](Cc1ccc(O)cc1)C(=O)N[C@@H](CCCNC(=N)N)C(=O)N[C@@H](CCCCN)C(=O)N[C@@H](CC(C)C)C(=O)N[C@@H](CC(C)C)C(=O)N[C@@H](CCCCN)C(=O)N[C@@H](CO)C(N)=O)[C@@H](C)O
